Laboratory results: patent US20230115257A1 (published 2023)

Assays:
Assay in all cases: ELISA
[1] = target: SARS-CoV-2 BA.2 spike trimer variant (SARS-CoV-2 Omicron BA.2, UniProt P0DTC2 16-1213)
[2] = target: SARS-CoV-2 B.1.1.529 spike trimer variant (SARS-CoV-2 B.1.1.529 (Omicron), UniProt P0DTC2 16-1213)
[3] = target: SARS-CoV-2 Beta (B.1.351) variant prefusion stabilized spike trimer protein (UniProt P0DTC2 14-1213)

Row | Binder | EC50 [1] [nM] | EC50 [2] [nM] | EC50 [3] [nM]
1 | 9-P9-A (antibody, V domains shown) VH: DVKLVESGEGLVKPGGSLKLSCAASGFSFSNFGMSWVRQTPEKRLEWVAYISSGGDYIYYADTVKGRFTISRDNARNTLYLQMSSLKSEDTAIYYCTRGYFDYWGQGTTLTVSS VL: DVLMTQTPLSLPVSLGDQASISCRSSQSIVHSNGNTYLEWYLQKPGQSPKLLIYTVSNRFSGVPDRFSGSGSGTDFTLKISRVEAEDLGVYYCFQGSHVPYTFGGGTKLEMR | 0.3 | 0.29 | 
2 | 3-E13-A (antibody, V domains shown) VH: EVQLQQSGPELVKPGASVKMSCKASGYTFTDYNIHWVKQSHGKSLEWIGYINPNNGGTDYNQKFQGKATLTVNKSSSTAYMELRSLTSEDFAVYYCARGGFYGNYGAYYGMDFWGQGTSVTVSS VL: DIQMTQSPASLSASVGETVTITCRTSENIYSHLAWYQQTQGKSPQLLVYNAKTLAEGVPSRFSGSGSGTHFSLKINSLQPEDFGSYYCQHHYGIPPEFGGGTKLEIK | 0.35 | 0.35 | 
3 | 2-O15-A (antibody, V domains shown) VH: QVQLQQSGAELVRPGASVKLSCKASGYTFTDCEMHWVKQTPVHGLEWIGVIDPETGDTAYNQKFKGKATLTADKSSSTAYMELRSLTSEDSAVYYCTRRRDYGNPYWYFDVWGAGTTVTVSS VL: EIVLTQSPALMAASPGEKVTITCSVSSSISSSNLHWYQQKSGTSPKPWIYGTSNLASGVPVRFSGSGSGTSYSLTISSMEAEDAATYYCQQWTSYPYTFGSGTKLEIK |  |  | 0.59
4 | 2-J9-A (antibody, V domains shown) VH: EVQLQQSGPELVKPGASVKMSCKASGYTFTDYNIHWVKQSHGKSLEWIGYINPNNGGTDYNQKFQGKATLTVNKSSSTAYMELRSLTSEDSAVYYCARGGFYGNYGAYYGMDFWGQGTSVTVSS VL: DIQMTQSPASLSASVGETVTITCRTSENIYSHLAWYQQTQGKSPQLLVYNTKTLAEGVPSRFTGSGSGTQFSLKINSLQPEDFGSYYCQHHYGIPPEFGGGTKLEIK | 0.31 | 0.4 | 
5 | 9-J11-A (antibody, V domains shown) VH: QVQLQQSGAELVKPGASVKMSCMASGYTFTTYPIEWMKQIHGKSLEWIGNFHPYNDDSKYNEKFKGKATLSVEKSSSTVYLELSRSTSDDSAVYYCARGSYGPYWYFDVWGTGTTVTVSS VL: DIQMTQSPASLSASVGETVTITCRASGDIHNYLVWYQQKQGKSPQLLVYNAKALADGVPSRFSGSGSGTQYSLKINSLQPDDFGSYYCQHFWSIPYTFGGGTKLEIK | 8.21 | 0.39 | 
6 | 4-C3-A (antibody, V domains shown) VH: EVQLQQSGPELVKPGASVKISCKASGYSFTGYYMHWVKQSHGNILDWIGYIYPYNGVSSYNQKFKGKATLTVDKSSSTAYMELRSLTSEASAVYYCARAYGSSYDYYYGLDYWGQGTSVTVSS VL: DIVLTQSPASLAVSLGQRATISCKASQSVDYDGAGYMNWYQQKPGQPPKLLISSASNLQSGIPARFSGSGSGTDFTLNIHPVEEEDAATYYCQQSNDDPYTFGGGTKLEIK | 3.07 | 0.71 | 
7 | 9-L13-A (antibody, V domains shown) VH: QVQLKESGPGLVAPSQSLSITCTVSGFSLTSYAISWVRQPPGKGLEWLGLIWTGGGTNYNSALKSRLSISKDNSKSQIFLKMNSLQTDDTARYYCARGPPLIYYGDLYYFDYWGQGTTLTVSS VL: DIQMTQSPSSLSASLGGKVTITCKASQDINKYIAWYQHKPGKGPRLLIHYTSTLQPGIPSRFSGSGSGRDYSFSISNLEPEDIATYYCLQYDNLWTFGGGTKLEIK | 12 | 10.9 | 
8 | 8-N24-A (antibody, V domains shown) VH: QVQLQQPGAELVKPGASVKVSCKASGYTFTSYWMHWVKQRPGQGLEWIGRIHPSDSDTNYYQKFKGKATLSVDKSSSTAYMQLSSLTSEDSAVYYCAIPLYSYDNSGGYYPMDYWGQGTSVTVSS VL: DIVMTQSQKFMSTSVGDRVTITCKASQNVRTAVAWYQQKPGQSPKKLIYLASNRHTGVPDRFTGSGSGTDFTLAISNVQSEDLADYFCLQHWNYPFTFGSGTRLEIK | 3.25 | 4.19 | 
9 | 2-P2-A (antibody, V domains shown) VH: EVQLQQSGAELVRPGSSVKMSCKTSGYTFTSYGINWVKQRPGQGLEWIGYIYIGNGYTEYNEKFKGKATLTSDTSSSTAYMQLSSLTSEDSAIYFCARGGVDYWGQGTTLTVSS VL: DVLMTQTPLSLPVSLGDQASISCRSSQSIVHSNGNTYLEWYLQKPGQSPKLLIYKVSNRFSGVPDRFSGSGSGTDFTLKISRVEAEDLGVYYCFQGSHVPYTFGGGTKLEIK | 0.5 | 0.58 | 
10 | 6-C19-A-WT (antibody, V domains shown) VH: EVQLQQSGPELVKPGASVKMSCKASGYTFTDYNIHWVKQSHGKSLEWIGYINPNNGGTDYNQKFQGKATLTVDKSSSTAYMELRSLTSEDSAVYYCARGGFYGNYGSYYGMDFWGQGTSVTVSS VL: DIQMTQSPASLSASVGETVTITCRTSENIYSHLAWYQQTQGKSPHLLVYNAKTLAEGVPSRFSGSGSGTQFSLKINSLQPEDFGSYFCQHHYGIPPEFGGGTKLEIK | 0.36 | 0.36 | 
11 | 4-K16-A (antibody, V domains shown) VH: QIQLVQSGPELKKPGETVKISCKASGYTFTTYGMSWVKQAPGKGLKWMGWMSTYSGVPTYADDFKGRFAFSLETSASTAYLQINNLKNEDTATYFCASGDVGYWGQGTTLTVSS VL: DIVMTQSQKFMSTSVGDRVSVTCKASQNVGTNVAWYQQKPGQSPKALIYSASYRYSGVPDRFTGSGSGTDFTLTISTVQSEDLAEYFCQQYNIYPSTFGGGTKLEIK | 3.87 | 0.94 | 
12 | 10-B11-A (antibody, V domains shown) VH: QVQLQQPGAELVKPGASVKVSCKASGYTFTSYWMHWVKQRPGQGLEWIGRIHPSDSDTNYYQKFKGKATLSVDKSSSTAYMQLSSLTSEDSAVYYCAIPLYSYDNSGGYYPMDYWGQGTSVTVSS VL: DIVMTQSQKFMSTSVGDRVTITCKASQNVRTAVAWYQQKPGQSPKKLIYLASNRHTGVPDRFTGSGSGTDFTLAISNVQSEDLADYFCLQHWNYPFTFGSGTRLEIK | 0.84 | 1.16 | 
13 | 5-H22-A (antibody, V domains shown) VH: QVQLQQSGAELVRPGASVTLSCKASGYTFTDYEMHWMKQTPVHGLEWIGAIDLETGGTVYNQKFKGKAILTADKSSNTAYMALRSLTSEDSAVYYCTREFPHYYGSRYGFPYWGQGTLVTVSA VL: QIVLTQSPAIMSASPGEKVTITCSASSSVSYMHWLQQKPGTSPKLWIYSTSNLASGVPARFSGSGSGTSYSLTISRMEAEDAATYYCQQRSSYPYTFGGGTKLEIK |  | 1.26 | 
14 | 10-I12-A (antibody, V domains shown) VH: RVQLQQSGPELVRPGTSVKISCKASGYTFTDSYINWVTQRPGQGLDWIGWIFPGNDNTYYNEKFEGKATLTLDKSSSTAYMLLSSLTSEDSAVYFCARSGGLRLGFAYWGQGTLVTVSA VL: NIVLTQSPASLAVSRGQRATISCRASESVDSYGHSFIHWYQQKPGQPPKILIYLASKLESGVPARFSGSGSRTDFTLTIDPVEADDAATYYCQQNNEDPWTFGGGTKLEIK | 81.1 |  | 
15 | 6-L8-A (antibody, V domains shown) VH: EVQLQQSVAELVRPGASVKLSCTPSGFNIKNTYMHWMKQRPEQGLEWIGRINPANDDTKYAPKFQDKATITADTSSNTAYLQLSSLTSEDTAIYYCVYDVRWYFDVWGTGTTVTVSS VL: DVVMTQTPLSLPVSLGDQASISCRSSQGLVHSNGNTYLHWYLQKPGQSPKLLIYKVSNRFSGVPDRFSGSGSGTDFTLKISRVEAEDLGVYFCSQSTHVPPTFGAGTKLELK | 20.6 | 64 | 
